Assay results: patent publication US20220380801A1, “TRIPARTITE SYSTEMS FOR PROTEIN DIMERIZATION AND METHODS OF USE” (priority 2019, published 2022)

Biological target: DBD-FKBP12 (three tandem copies) (UniProt P62942)
Experiment: cell-based or functional assay

DBD-FKBP12 (three tandem copies), sequence (P62942 other isoform, or with tags, fused parts or gaps limits assumed): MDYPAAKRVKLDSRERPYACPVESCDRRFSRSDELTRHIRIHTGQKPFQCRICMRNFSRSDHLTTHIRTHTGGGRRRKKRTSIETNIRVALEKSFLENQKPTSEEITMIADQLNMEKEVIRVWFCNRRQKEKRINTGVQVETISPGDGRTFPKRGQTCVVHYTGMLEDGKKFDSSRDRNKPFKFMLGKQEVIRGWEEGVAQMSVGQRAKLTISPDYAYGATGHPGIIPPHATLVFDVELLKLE

With FRB-AD (from UniProt P42345 2021-2113) the fold increase of luciferase expression, split transcription factor, rapalog was 30 fold.
